From paper PMC9117480

Legend:
[1] = target: GST mutant encoding FSY at position-52 (Schistosoma japonicum (printed only as SjGST)); assay: cross-linking
[2] = target: GST mutant encoding FPheK at position-52 (Schistosoma japonicum (printed only as SjGST)); assay: cross-linking

## GST mutant encoding FSY at position-52 (enzyme)
[1]
  stoichiometry N: 2

## GST mutant encoding FPheK at position-52 (enzyme)
[2]
  stoichiometry N: 2
